T1: Methyl-Coenzyme M Reductase (MCR) chain A (Methanothermobacter marburgensis, UniProt P11558 1-550)
T1 sequence (looked up): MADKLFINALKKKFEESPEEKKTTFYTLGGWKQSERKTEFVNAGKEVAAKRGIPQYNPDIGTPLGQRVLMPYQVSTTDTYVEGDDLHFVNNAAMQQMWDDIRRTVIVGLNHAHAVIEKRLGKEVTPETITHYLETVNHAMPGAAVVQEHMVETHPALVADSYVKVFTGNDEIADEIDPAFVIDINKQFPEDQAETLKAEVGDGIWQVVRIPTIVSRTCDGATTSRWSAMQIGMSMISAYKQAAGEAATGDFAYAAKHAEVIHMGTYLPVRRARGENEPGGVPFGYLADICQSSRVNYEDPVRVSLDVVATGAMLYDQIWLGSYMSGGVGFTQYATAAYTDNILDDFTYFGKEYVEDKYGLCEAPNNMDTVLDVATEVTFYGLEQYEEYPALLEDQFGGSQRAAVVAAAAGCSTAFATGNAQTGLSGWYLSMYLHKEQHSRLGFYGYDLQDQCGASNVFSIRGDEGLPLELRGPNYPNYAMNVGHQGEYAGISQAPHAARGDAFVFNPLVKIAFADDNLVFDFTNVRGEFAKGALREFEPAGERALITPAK

B1: Methyl-Coenzyme M Reductase (MCR) chain B (natural protein, Methanothermobacter marburgensis, UniProt P11560 1-443, looked up)
chain: MAKFEDKVDLYDDRGNLVEEQVPLEALSPLRNPAIKSIVQGIKRTVAVNLEGIENALKTAKVGGPACKIMGRELDLDIVGNAESIAAAAKEMIQVTEDDDTNVELLGGGKRALVQVPSARFDVAAEYSAAPLVTATAFVQAIINEFDVSMYDANMVKAAVLGRYPQSVEYMGANIATMLDIPQKLEGPGYALRNIMVNHVVAATLKNTLQAAALSTILEQTAMFEMGDAVGAFERMHLLGLAYQGMNADNLVFDLVKANGKEGTVGSVIADLVERALEDGVIKVEKELTDYKVYGTDDLAMWNAYAAAGLMAATMVNQGAARAAQGVSSTLLYYNDLIEFETGLPSVDFGKVEGTAVGFSFFSHSIYGGGGPGIFNGNHIVTRHSKGFAIPCVAAAMALDAGTQMFSPEATSGLIKEVFSQVDEFREPLKYVVEAAAEIKNEI

Columns and labels:
Assay in all cases: crystal structure
[1] = target: T1, Methyl-Coenzyme M Reductase (MCR) chain …
[2] = target: the molecule itself
[3] = target: B1

Binder	binding result [1]	stoichiometry N [2]	binding result [3]
B1	binds	–	–
Methyl-Coenzyme M Reductase (MCR) heterotrimer of chains A, B and C, MCRred1-silent Ni(II) form (complex, Methanothermobacter marburgensis) chain 1: MADKLFINALKKKFEESPEEKKTTFYTLGGWKQSERKTEFVNAGKEVAAKRGIPQYNPDIGTPLGQRVLMPYQVSTTDTYVEGDDLHFVNNAAMQQMWDDIRRTVIVGLNHAHAVIEKRLGKEVTPETITHYLETVNHAMPGAAVVQEHMVETHPALVADSYVKVFTGNDEIADEIDPAFVIDINKQFPEDQAETLKAEVGDGIWQVVRIPTIVSRTCDGATTSRWSAMQIGMSMISAYKQAAGEAATGDFAYAAKHAEVIHMGTYLPVRRARGENEPGGVPFGYLADICQSSRVNYEDPVRVSLDVVATGAMLYDQIWLGSYMSGGVGFTQYATAAYTDNILDDFTYFGKEYVEDKYGLCEAPNNMDTVLDVATEVTFYGLEQYEEYPALLEDQFGGSQRAAVVAAAAGCSTAFATGNAQTGLSGWYLSMYLHKEQHSRLGFYGYDLQDQCGASNVFSIRGDEGLPLELRGPNYPNYAMNVGHQGEYAGISQAPHAARGDAFVFNPLVKIAFADDNLVFDFTNVRGEFAKGALREFEPAGERALITPAK chain 2: MAKFEDKVDLYDDRGNLVEEQVPLEALSPLRNPAIKSIVQGIKRTVAVNLEGIENALKTAKVGGPACKIMGRELDLDIVGNAESIAAAAKEMIQVTEDDDTNVELLGGGKRALVQVPSARFDVAAEYSAAPLVTATAFVQAIINEFDVSMYDANMVKAAVLGRYPQSVEYMGANIATMLDIPQKLEGPGYALRNIMVNHVVAATLKNTLQAAALSTILEQTAMFEMGDAVGAFERMHLLGLAYQGMNADNLVFDLVKANGKEGTVGSVIADLVERALEDGVIKVEKELTDYKVYGTDDLAMWNAYAAAGLMAATMVNQGAARAAQGVSSTLLYYNDLIEFETGLPSVDFGKVEGTAVGFSFFSHSIYGGGGPGIFNGNHIVTRHSKGFAIPCVAAAMALDAGTQMFSPEATSGLIKEVFSQVDEFREPLKYVVEAAAEIKNEI chain 3: MAQYYPGTTKVAQNRRNFCNPEYELEKLREISDEDVVKILGHRAPGEEYPSVHPPLEEMDEPEDAIREMVEPIDGAKAGDRVRYIQFTDSMYFAPAQPYVRSRAYLCRYRGADAGTLSGRQIIETRERDLEKISKELLETEFFDPARSGVRGKSVHGHSLRLDEDGMMFDMLRRQIYNKDTGRVEMVKNQIGDELDEPVDLGEPLDEETLMEKTTIYRVDGEAYRDDVEAVEIMQRIHVLRSQGGFNLE	–	2	–
Methyl-Coenzyme M Reductase (MCR) chain C (natural protein, Methanothermobacter marburgensis, UniProt P11562 1-249, looked up) MAQYYPGTTKVAQNRRNFCNPEYELEKLREISDEDVVKILGHRAPGEEYPSVHPPLEEMDEPEDAIREMVEPIDGAKAGDRVRYIQFTDSMYFAPAQPYVRSRAYLCRYRGADAGTLSGRQIIETRERDLEKISKELLETEFFDPARSGVRGKSVHGHSLRLDEDGMMFDMLRRQIYNKDTGRVEMVKNQIGDELDEPVDLGEPLDEETLMEKTTIYRVDGEAYRDDVEAVEIMQRIHVLRSQGGFNLE	binds	–	binds

Reference: article PMC8930625 (Journal of inorganic biochemistry, 2022)
